Reference: patent publication US20230159631A1 (ME THERAPEUTICS, published 2023)

T1: recombinant human G-CSF (Genscript) (human, UniProt P09919-2 31-204, limits assumed)
T1 construct: also called hG-CSF; granulocyte colony stimulating factor
T1 sequence (looked up): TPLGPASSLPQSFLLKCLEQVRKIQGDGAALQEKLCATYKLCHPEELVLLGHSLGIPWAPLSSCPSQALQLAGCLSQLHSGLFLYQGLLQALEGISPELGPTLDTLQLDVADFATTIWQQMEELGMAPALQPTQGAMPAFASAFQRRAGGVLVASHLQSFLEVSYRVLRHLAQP


Legend:
[1] = target: T1, recombinant human G-CSF (Genscript); test: SPR (ProteOn), supernatant captured on anti-mouse Fc, human G-CSF analyte, average of two injections
Description: (§1) Affinities of clones 2F6, 1B11, 3G5, 10B9, 9B7, 10G1, and 3B3 were measured by SPR. The work was carried out at the National Research Council of Canada (Montreal, Quebec).
(§2) 2.5% supernatants (except variants 1B11.2 and 10B9.1.2 used 4%) were captured on an anti-mouse Fc antibody, flowed with a 30, 10, 3.33, 1.11, and 0.37 nM concentration series of human G-CSF with buffer blank. Association (ka) and dissociation (kd) rates were measured using a BioRad ProteOn™ instrument. Affinity (KD) was calculated as […].

[2] = target: T1, recombinant human G-CSF (Genscript); test: SPR (Antigen binding (SPR)); antibody captured on an anti-Fc surface, antigen flowed over
[3] = target: T1, recombinant human G-CSF (Genscript); test: SPR (Antigen binding (SPR)); antibody captured on an anti-Fc surface, antigen flowed over; column head Koff (10-4 x s-1)
[4] = target: T1, recombinant human G-CSF (Genscript); test: SPR (ProteOn), supernatant captured on anti-mouse Fc, human G-CSF analyte, injection #1
Description: as §1, §2

[5] = target: T1, recombinant human G-CSF (Genscript); test: SPR (ProteOn), supernatant captured on anti-mouse Fc, human G-CSF analyte, injection #2
Description: as §1, §2

Kd [1] | Kd [2] | koff [3] | Kd [4] | koff [4] | kon [4] | Kd [5] | koff [5] | kon [5] | Binder
0.064 nM | 0.06 nM | 5e-05 s⁻¹ | 0.0663 nM | 5.15e-05 s⁻¹ | 777000 M⁻¹ s⁻¹ | 0.0622 nM | 4.72e-05 s⁻¹ | 758000 M⁻¹ s⁻¹ | anti-G-CSF antibody clone 1B11 (antibody, V domains shown, Mouse hybridoma monoclonal antibody; also called 1B11.2; 3A3) VH: QVHLQQSGAELARPGASVKMSCKASGYTFPIYTMHWIKQRPGQGLEWIGYINPSIGYANYNQKFRDKATLTADKSSSTAYMQLSSLTSEDSAVYYCARGGYGDSLFAYWGQGTLVTVSA VL: DIVMTQAAFSNPVTLGTSASISCRSSKSLLHSNGITYLYWYLQKPGQSPQLLIYQMSNLASGVPDRFSSSGSGTDFTLRISRVEAEDVGVYYCAQNLELPYTFGGGTKLEIK
0.31 nM |  |  | 0.329 nM | 0.000301 s⁻¹ | 914000 M⁻¹ s⁻¹ | 0.293 nM | 0.000286 s⁻¹ | 976000 M⁻¹ s⁻¹ | anti-G-CSF antibody clone 3B3 (antibody, V domains shown, Mouse hybridoma monoclonal antibody; also called 3B3.2; 3B2) VH: QVQLQQSGAELARPGASVKMSCKASGYTFTPYTMHWVKQRPGQDLEWIGYINPSINYTNYNQKFKDKATLTADKSSSTAYMQLSSLTSEDSAVYFCARRGSYGNFDYWGQGTTLTVSS VL: DIVMTQAAFSNPVTLGTSASISCRSNKSLLHSNGITYLYWYLQKPGQSPQLLIYQMSNLASGVPDRFSSSGSGTDFTLRISRVEAEDVGVYYCAQNLELPLTFGAGTKLELK
 | 0.1 nM | 0.00012 s⁻¹ |  |  |  |  |  |  | 1B11 antibody variant 1 (cL/cH) (antibody, V domains shown, also called clone 1; chimeric 1B11) VH: QVHLQQSGAELARPGASVKMSCKASGYTFPIYTMHWIKQRPGQGLEWIGYINPSIGYANYNQKFRDKATLTADKSSSTAYMQLSSLTSEDSAVYYCARGGYGDSLFAYWGQGTLVTVSA VL: DIVMTQAAFSNPVTLGTSASISCRSSKSLLHSNGITYLYWYLQKPGQSPQLLIYQMSNLASGVPDRFSSSGSGTDFTLRISRVEAEDVGVYYCAQNLELPYTFGGGTKLEIK
 | 0.19 nM | 0.00017 s⁻¹ |  |  |  |  |  |  | humanized 1B11 antibody variant 9 (h1L/h3H) (antibody, V domains shown, variable domains only; also called clone 9) VH: QVQLVQSGAEVKKPGASVKVSCKASGYTFPIYTMHWIKQAPGQGLEWIGYINPSIGYANYNQKFRDRATLTADKSTSTAYMELSSLRSEDTAVYYCARGGYGDSLFAYWGQGTLVTVSS VL: DIVMTQSPLSLPVTPGEPASISCRSSKSLLHSNGITYLYWYLQKPGQSPQLLIYQMSNLASGVPDRFSGSGSGTDFTLKISRVEAEDVGVYYCAQNLELPYTFGQGTKLEIK
 | 0.16 nM | 0.00015 s⁻¹ |  |  |  |  |  |  | humanized 1B11 antibody variant 10 (h1L/h4H) (antibody, V domains shown, variable domains only; also called clone 10) VH: QVHLVQSGAEVKKPGASVKVSCKASGYTFPIYTMHWIKQAPGQGLEWIGYINPSIGYANYNQKFRDKATLTADKSTSTAYMELSSLRSEDTAVYYCARGGYGDSLFAYWGQGTLVTVSS VL: DIVMTQSPLSLPVTPGEPASISCRSSKSLLHSNGITYLYWYLQKPGQSPQLLIYQMSNLASGVPDRFSGSGSGTDFTLKISRVEAEDVGVYYCAQNLELPYTFGQGTKLEIK
 | 0.29 nM | 0.00017 s⁻¹ |  |  |  |  |  |  | humanized 1B11 antibody variant 8 (h1L/h2H) (antibody, V domains shown, variable domains only; also called clone 8) VH: QVQLVQSGAEVKKPGASVKVSCKASGYTFPIYTMHWIRQAPGQGLEWIGYINPSIGYANYNQKFRDRATLTADTSTSTAYMELSSLRSEDTAVYYCARGGYGDSLFAYWGQGTLVTVSS VL: DIVMTQSPLSLPVTPGEPASISCRSSKSLLHSNGITYLYWYLQKPGQSPQLLIYQMSNLASGVPDRFSGSGSGTDFTLKISRVEAEDVGVYYCAQNLELPYTFGQGTKLEIK
 | 0.15 nM | 0.00013 s⁻¹ |  |  |  |  |  |  | humanized 1B11 antibody variant 14 (h2L/h3H) (antibody, V domains shown, variable domains only; also called clone 14) VH: QVQLVQSGAEVKKPGASVKVSCKASGYTFPIYTMHWIKQAPGQGLEWIGYINPSIGYANYNQKFRDRATLTADKSTSTAYMELSSLRSEDTAVYYCARGGYGDSLFAYWGQGTLVTVSS VL: DIVMTQSPLSLPVTPGEPASISCRSSKSLLHSNGITYLYWYLQKPGQSPQLLIYQMSNLASGVPDRFSSSGSGTDFTLKISRVEAEDVGVYYCAQNLELPYTFGQGTKLEIK
 | 0.29 nM | 0.00017 s⁻¹ |  |  |  |  |  |  | humanized 1B11 antibody variant 7 (h1L/h1H) (antibody, V domains shown, also called clone 7; Variant 7 anti-G-CSF antibody) VH: QVQLVQSGAEVKKPGASVKVSCKASGYTFPIYTMHWVRQAPGQGLEWMGYINPSIGYANYNQKFRDRVTITADTSTSTAYMELSSLRSEDTAVYYCARGGYGDSLFAYWGQGTLVTVSS VL: DIVMTQSPLSLPVTPGEPASISCRSSKSLLHSNGITYLYWYLQKPGQSPQLLIYQMSNLASGVPDRFSGSGSGTDFTLKISRVEAEDVGVYYCAQNLELPYTFGQGTKLEIK
 | 0.2 nM | 0.00012 s⁻¹ |  |  |  |  |  |  | humanized 1B11 antibody variant 13 (h2L/h2H) (antibody, V domains shown, variable domains only; also called clone 13) VH: QVQLVQSGAEVKKPGASVKVSCKASGYTFPIYTMHWIRQAPGQGLEWIGYINPSIGYANYNQKFRDRATLTADTSTSTAYMELSSLRSEDTAVYYCARGGYGDSLFAYWGQGTLVTVSS VL: DIVMTQSPLSLPVTPGEPASISCRSSKSLLHSNGITYLYWYLQKPGQSPQLLIYQMSNLASGVPDRFSSSGSGTDFTLKISRVEAEDVGVYYCAQNLELPYTFGQGTKLEIK
 | 0.12 nM | 0.0001 s⁻¹ |  |  |  |  |  |  | humanized 1B11 antibody variant 15 (h2L/h4H) (antibody, V domains shown, variable domains only; also called clone 15) VH: QVHLVQSGAEVKKPGASVKVSCKASGYTFPIYTMHWIKQAPGQGLEWIGYINPSIGYANYNQKFRDKATLTADKSTSTAYMELSSLRSEDTAVYYCARGGYGDSLFAYWGQGTLVTVSS VL: DIVMTQSPLSLPVTPGEPASISCRSSKSLLHSNGITYLYWYLQKPGQSPQLLIYQMSNLASGVPDRFSSSGSGTDFTLKISRVEAEDVGVYYCAQNLELPYTFGQGTKLEIK
